From PMC9391438, “Structures of L-BC virus and its open particle provide insight into Totivirus capsid assembly” (Communications Biology, 2022)

Target: the molecule itself
Assay: cryo-EM structure; L-BC particles purified from yeast, vitrified in 20 mM Tris-HCl pH 7.5, 50 mM KCl, 10 mM MgCl2; empty particle 2.9 Å and virion 3.7 Å (icosahedral symmetry), open particle 10 Å (C5) and 12 Å (C1)

B1: L-BC virus capsid protein (Saccharomyces cerevisiae virus L-BCLa) (natural protein)
chain: MSSLLNSLLPEYFKPKTNLNINSSRVQYGFNARIDMQYEDDSGTRKGSRPNAFMSNTVAFIGNYEGIIVDDIPILDGLRADIFDTHGDLDMGLVEDALSKSTMIRRNVPTYTAYASELLYKRNLTSLFYNMLRLYYIKKWGSIKYEKDAIFYDNGHACLLNRQLFPKSRDASLESSLSLPEAEIAMLDPGLEFPEEDVPAILWHGRVSSRATCILGQACSEFAPLAPFSIAHYSPQLTRKLFVNAPAGIEPSSGRYTHEDVKDAITILVSANQAYTDFEAAYLMLAQTLVSPVPRTAEASAWFINAGMVNMPTLSCANGYYPALTNVNPYHRLDTWKDTLNHWVAYPDMLFYHSVAMIESCYVELGNVARVSDSDAINKYTFTELSVQGRPVMNRGIIVDLTLVAMRTGREISLPYPVSCGLTRTDALLQGTEIHVPVVVKDIDMPQYYNAIDKDVIEGQETVIKVKQLPPAMYPIYTYGINTTEFYSDHFEDQVQVEMAPIDNGKAVFNDARKFSKFMSIMRMMGNDVTATDLVTGRKVSNWADNSSGRFLYTDVKYEGQTAFLVDMDTVKARDHCWVSIVDPNGTMNLSYKMTNFRAAMFSRNKPLYMTGGSVRTIATGNYRDAAERLRAMDETLRLKPFKITEKLDFRVAAYAIPSLSGSNMPSLHHQEQLQISEVDAEPINPIGEDELPPDIE
notes: Capsid protein of Saccharomyces cerevisiae virus L-BCLa (L-BC), as found in virus particles from yeast; genome NC_001641.1; the model has 1316 resolved residues for the two copies (A and B) of the icosahedral asymmetric unit; The same chain takes two conformations (A and B) in the capsid; no density for it was resolved; also called A subunit; B subunit
  stoichiometry N: 120
